These results are taken from patent publication US20250188193A1 (ROCKEFELLER UNIVERSITY, published 2025).

Test [1] deals with T1, anti-NP antibody 3B62, afucosylated IgG (monomeric, or as immune complex with NP-BSA) (chain 1 pos 82 (Asn297 EU): afucosylated N-glycan; the Fc is a disulfide-linked homodimer; in FIG. 11E it is complexed with NP-BSA through the Fab arms).
T1 construct: Immune complexes made with NP-BSA (27 conjugations) at a 10:1 molar ratio; also called monomeric 3B62; IgG immune complexes
Description: competition ELISA: nanobody pre-complexed with monomeric afucosylated 3B62, then captured on coated FcγRI; the blocked ligand is FcγRI. The method, then: Recombinant FcγR ectodomains were expressed in Expi-293F and purified with Ni-NTA resin as in previously described protocols (S. Chakraborty et al., Sci. Transl. Med., eabm7853 (2022)). […] Plates were then blocked with PBS plus 2% (w/v) BSA. IgG immune complexes were prepared by incubation of an anti-NP (4-hydroxy-3-nitrophenylacetyl) antibody 3B62 with NP-BSA (27 conjugations) at a 10:1 molar ratio for 1h at 4° C. […] IgG immune complexes or monomeric 3B62 were brought to a concentration of 20 ug ml⁻¹ or 2 μg/ml respectively and pre-complexed at a 1:1 (v/v) ratio for 1h at room temperature and then captured on FcγR-coated plates. Following 1h incubation, bound IgG was detected using a 1:5000 dilution of horseradish peroxidase (HRP)-conjugated goat F(ab′)₂ anti-human IgG (H+L) (Jackson Immunoresearch). Plates were developed with TMB (3,3′,5,5′-tetramethylbenzidine) two-component peroxidase substrate kit. Reactions were quenched with 1M phosphoric acid. Absorbance at 450 nm was recorded using a SpectraMax Plus spectrophotometer (Molecular Devices). Background absorbance was subtracted for samples, and % maximum binding was determined against an IgG or immune complex only control.

The target in test [2] is T2, aglycosylated 3B62 N297A mutant (aglycosylated (no N-glycan after N297A); the Fc is a disulfide-linked homodimer).
T2 construct: 297 is an EU position, not a position on the UniProt entry; also called aglycosylated N297A IgG1 mutant; aglycosylated IgG
Description: SPR (Biacore T200). As for the experimental part:
Traces are raw data, while 1:1 Langmuir global kinetic fits are shown in black.
Surface Plasmon Resonance (SPR) was performed on a Biacore T200 machine (Cytiva Life Sciences). In some experiments, purified IgG glycoforms diluted in HBS-EP+ were immobilized on the surface of a Protein A or Protein G CM5 sensor chip at 1000 RU (˜50 nM). Purified nanobodies were flowed over IgG-bound sensor chips at the indicated concentrations at 30 uL/minute for 60 seconds, followed by 600 seconds of dissociation. Sensor chips were regenerated with 10 mM Glycine-HCl pH 1.5.

The target in test [3] is T3, IgG1 S2G2 glycoform (antibody clone not named).
T3 construct: also called afucosylated form of IgG1
The test can be described thus: ELISA with B7; the concentration of the IgG1 glycoform is varied.

The target of test [4] is T4, Rituximab G2 (galactosylated afucosylated glycoform).
T4 construct: Whole IgG1; also called G2-Rituximab; G2 glycoform of IgG1 Fc
The test can be described thus: SPR (Biacore T200), 1:1 Langmuir kinetic fit.

B1: X0 (VHH)
VHH: QVQLQESGGGLVQAGGSLRLSCAASPGISRYKTMGWYRQAPGKERSFVAAITWGGLTYYADSVKGRFTVSRDNAKNTVYLQMNSLKPEDTAVYYCSVDGGTRADPYHYYWGQGTQVTVSS
notes: also called clone X0; not shown: His tag and AviTag from the pET26-b(+) construct
Regarding B1, the “IC50 (read off the curve)” value in test [1] was roughly 1000 nM.

B2: mC11 (VHH)
VHH: QVQLQESGGGLVQAGGSLRLSCAASPGIYRYKTIAWYRQAPGKERSFVAAITWGGLTYRADSVKGRFTVSRDNAKNTVYLQMNSLKPEDTAVYYCSVDGGTRAQPVHYYWGQGTQVTVSS
notes: also called clone mC11; not shown: His tag and AviTag from the pET26-b(+) construct
With B2, the “IC50 (read off the curve)” value in test [1] is roughly 400 nM.

B3: B7 (VHH, not shown: small tags and cut ends)
VHH: QVQLQESGGGLVQAGGSLRLSCAASGGISRYKTMGWYRQAPGKEREFVAGITWGGSTYYADSVKGRFTISRDNAKNTVYLQMNSLKPEDTAVYYCSVDGGTYADPYHYYWGQGTQVTVSS
notes: also called clone B7; nanobody B7
For B3, in test [2], the binding result is reported as “no binding (tested: top concentration 256 nM)”. In addition, the “EC50 (read off the curve)” value in test [3] was roughly 0.4 µg/mL.

B4: C11 (VHH, not shown: small tags and cut ends)
VHH: QVQLQESGGGLVQAGGSLRLSCAASGYISRYHTMGWYRQAPGKEREFVAGITWGGSTYYADSVKGRFTISRDNAKNTVYLQMNSLKPEDTAVYYCAVDGGTYADPYHYYWGQGTQVTVSS
notes: also called clone C11; C11 parental clone
Molecule B4 showed a Kd in test [4] of 22800 nM.
